The values below come from patent US5726018.

The target of test [1] is pp32, dephosphorylated (murine) (UniProt O35381).
Test [2] has as its target pp35, dephosphorylated (murine).
Test [3] addresses pp35 (35 kDa murine nuclear phosphoprotein purified from A20 cells) (murine).
The target in test [4] is pp32 (32 kDa murine nuclear phosphoprotein from A20 cells) (murine) (UniProt O35381).

With “A 431 cell epidermal growth factor receptor kinase (from UniProt P00533) (enzyme)”, in test [1], the 32P incorporation (stoichiometry of phosphorylation) was below 0.01 mol/mol.
Turning to “casein kinase II from bovine thymus (enzyme)”, the 32P incorporation (stoichiometry of phosphorylation) was 0.08 mol/mol in test [1], 0.76 mol/mol in test [2], 0.05 mol/mol in test [3] and below 0.01 mol/mol in test [4].
The matching figures for “protein kinase C from rat brain (80 kDa isoenzyme)”: below 0.01 mol/mol, below 0.01 mol/mol, below 0.01 mol/mol and below 0.01 mol/mol.
